Results as given in PMC6286129, “CryoEM structures of open dimers of gyrase A in complex with DNA illuminate mechanism of strand passage” (eLife, 2018).

Columns and labels:
[1] = molecular target: the molecule itself; experiment: cryo-EM structure; Tetrahedral complex: GyrA-ΔCTD mixed with GyrB, 44 bp DNA, ciprofloxacin and novobiocin; purified on a glycerol/glutaraldehyde gradient (GraFix)
[2] = molecular target: the molecule itself; experiment: cryo-EM structure; Dihedral complex: GyrA-ΔCTD mixed with 44 bp DNA and ciprofloxacin, no GyrB; purified on a glycerol/glutaraldehyde gradient (GraFix); also a low resolution reconstruction without glutaraldehyde or antibiotics

B1: Streptococcus pneumoniae gyrase A subunit with truncated C-terminal domain (GyrA-ΔCTD, residues 1–487) (domain or fragment, UniProt P72524 1-487, looked up)
chain: MQDKNLVNVNLTKEMKASFIDYAMSVIVARALPDVRDGLKPVHRRILYGMNELGVTPDKPHKKSARITGDVMGKYHPHGDSSIYEAMVRMAQWWSYRYMLVDGHGNFGSMDGDSAAAQRYTEARMSKIALEMLRDINKNTVDFVDNYDANEREPLVLPARFPNLLVNGATGIAVGMATNIPPHNLGETIDAVKLVMDNPEVTTKDLMEVLPGPDFPTGALVMGKSGIHKAYETGKGSIVLRSRTEIETTKTGRERIVVTEFPYMVNKTKVHEHIVRLVQEKRIEGITAVRDESNREGVRFVIEVKRDASANVILNNLFKMTQMQTNFGFNMLAIQNGIPKILSLRQILDAYIEHQKEVVVRRTRFDKEKAEARAHILEGLLIALDHIDEVIRIIRASETDAEAQAELMSKFKLSERQSQAILDMRLRRLTGLERDKIQSEYDDLLALIADLADILAKPERVSQIIKDELDEVKRKFSDKRRTELMIG
notes: DNA gyrase subunit A, Streptococcus pneumoniae, gene cloned from the ATCC genome 700669DQ; residues 1-487 (C-terminal domain removed); The vector pMCSG7 adds 24 amino acids at the N-terminus, with a six amino acid His-tag and a TEV cleavage site; It forms open dimers that assemble around a 44 bp DNA into oligomers of four dimers (Dihedral complex) or six dimers (Tetrahedral complex); also called …
In the case of B1, the “stoichiometry N” value [1] is reported as 12 monomers and the “stoichiometry N” value [2] is reported as 8 monomers.
